Results: publication PMC2820766 (The Journal of Biological Chemistry, 2009)
Changes are numbered by the printed parent chain. Numbers in names are those of the source.

B1: MscSΔW L105W (W16Y/W240F/W251F/L105W), small mechanosensitive channel MscS-H6 (natural protein)
chain: MEDLNVVDSINGAGSYLVANQALLLSYAVNIVAALAIIIVGLIIARMISNAVNRLMISRKIDATVADFLSALVRYGIIAFTLIAALGRVGVQTASVIAVLGAAGWAVGLALQGSLSNLAAGVLLVMFRPFRAGEYVDLGGVAGTVLSVQIFSTTMRTADGKIIVIPNGKIIAGNIINFSREPVRRNEFIIGVAYDSDIDQVKQILTNIIQSEDRILKDREMTVRLNELGASSINFVVRVFSNSGDLQNVYFDVLERIKREFDAAGISFPYPQMDVNFKRVKEDKAA
B2: MscSΔW L105W/A106V (W16Y/W240F/W251F/L105W/A106V), small mechanosensitive channel MscS-H6 (natural protein)
chain: B1 chain with A106V

Target: the molecule itself
Assay: SEC

Protein	stoichiometry N
B1	7
B2	7
